Measured values reported in patent US20190270826A1 (Janssen / Centocor, published 2019).
Blank lines part the entries; values can stand above or below the binder they belong to.

Experiments:
[1] = molecular target: T1, mouse IL1RAP ECD displayed on HEK-293F cells (pDisplay) (mouse, UniProt Q61730 21-367); test: MSD cell binding, HEK-293F Mouse clone 5 cells displaying mouse IL1RAP ECD
T1 sequence: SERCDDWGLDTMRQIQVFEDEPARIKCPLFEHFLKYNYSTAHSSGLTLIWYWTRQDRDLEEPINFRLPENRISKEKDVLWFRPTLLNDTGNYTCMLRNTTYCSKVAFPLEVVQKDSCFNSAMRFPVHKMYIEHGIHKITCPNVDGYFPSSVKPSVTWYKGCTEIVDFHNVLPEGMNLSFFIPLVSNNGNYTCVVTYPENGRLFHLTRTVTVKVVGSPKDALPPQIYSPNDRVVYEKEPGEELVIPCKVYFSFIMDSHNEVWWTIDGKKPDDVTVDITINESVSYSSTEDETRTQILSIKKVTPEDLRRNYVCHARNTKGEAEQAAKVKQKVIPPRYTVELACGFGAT
Experimental: (§1) Cells were immobilized and IL1RAP antibody samples were assayed in triplicate. Briefly, expression supernatants of purified IL1RAP antibodies were normalized to 10 μg/mL. 5000 cells per well were plated into a 384 well plate (MA6000, cat. L21XB, MSD) and allowed to adhere for 2 hr. Cells were then blocked with 20% FBS in PBS (Gibco) for 15 mins. Antibody supernatants were then added and left at RT for 1 hr. Cells were washed 3 times with PBS and a ruthenium labeled secondary antibody (Mesoscale Discovery) was then added at 2 μg/mL and incubated for 1 hour at room temperature. A further washing step was then applied and 35 μL per well of 2×MSD Read buffer T (surfactant free) was then added and incubated for 5-30 minutes for detection. Plates were then read using Sector Imager 2400 (MSD). Data was normalized to controls and graphed using GraphPad Prism Version 5. A positive binder was determined to be a hit with a signal 3× greater than parental cell line background.
(§2) The MSD cell binding assay described in Example 4 was used to assess IL1RAP binding.

human FcγRI = molecular target: T2, human FcγRI (human, UniProt P12314 16-292, limits assumed); test: AlphaScreen competition, human FcγRI (n=1); displaced: biotinylated control mAb B21M hIgG1 AlaAla; pH 7.2
T2 construct: GST-tagged, on glutathione acceptor beads; also called FcγRT [sic]
Text: (§3) Measurements were made using an AlphaScreen™ assay (Amplified Luminescent Proximity Homogeneous Assay (ALPHA), PerkinElmer, Wellesley, Mass.), a bead-based luminescent proximity assay. Laser excitation of a donor bead excites oxygen, which if sufficiently close to the acceptor bead generates a cascade of chemiluminescent events, ultimately leading to fluorescence emission at 520-620 nm.

[2] = molecular target: T3, human IL1RAP ECD displayed on HEK-293F cells (pDisplay) (human, UniProt Q9NPH3 21-367); test: MSD cell binding, HEK-293F Human (clone HE2) cells displaying human IL1RAP ECD
T3 construct: also called Human clone HE2 IL1RAP FL-ECD cell line
T3 sequence: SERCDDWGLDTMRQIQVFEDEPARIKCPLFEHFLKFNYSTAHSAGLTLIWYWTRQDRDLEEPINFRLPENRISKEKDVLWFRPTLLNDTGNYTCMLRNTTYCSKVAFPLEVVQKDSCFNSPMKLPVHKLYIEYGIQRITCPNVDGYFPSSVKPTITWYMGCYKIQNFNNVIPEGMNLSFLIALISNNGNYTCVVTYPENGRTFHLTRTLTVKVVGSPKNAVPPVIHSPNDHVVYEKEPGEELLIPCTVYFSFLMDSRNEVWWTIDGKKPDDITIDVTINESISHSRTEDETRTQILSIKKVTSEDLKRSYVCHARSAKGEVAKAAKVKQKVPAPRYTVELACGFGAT
Experimental: as §1, §2

[3] = molecular target: T4, cyno IL1RAP ECD displayed on HEK-293F cells (pDisplay) (cynomolgus monkey, UniProt P59822 21-367 (rhesus entry)); test: MSD cell binding, HEK-293F Cyno (clone CB8) cells displaying cyno IL1RAP ECD
T4 sequence: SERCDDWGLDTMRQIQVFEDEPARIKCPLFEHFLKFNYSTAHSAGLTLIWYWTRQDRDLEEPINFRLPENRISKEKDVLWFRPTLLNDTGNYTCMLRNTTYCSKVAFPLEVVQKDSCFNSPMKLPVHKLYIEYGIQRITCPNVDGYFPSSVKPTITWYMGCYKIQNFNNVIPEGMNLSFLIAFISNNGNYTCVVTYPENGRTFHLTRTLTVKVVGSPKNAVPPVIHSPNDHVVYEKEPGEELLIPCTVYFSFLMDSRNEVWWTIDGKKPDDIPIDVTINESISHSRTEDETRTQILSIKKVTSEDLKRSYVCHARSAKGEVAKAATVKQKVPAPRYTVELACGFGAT
Experimental: as §1, §2

human FcRn = molecular target: T5, human FcRn (human, UniProt P55899 24-297; P61769 21-119, limits assumed); test: AlphaScreen competition, human FcRn (n=1); displaced: biotinylated control mAb B21M WT IgG1 (m27); pH 6.0
T5 construct: GST-tagged
Text: as §3

[4] = molecular target: T6, human IL1RAP on cells (endogenous) (human, UniProt Q9NPH3 21-570); test: cell-based or functional assay
T6 sequence (looked up): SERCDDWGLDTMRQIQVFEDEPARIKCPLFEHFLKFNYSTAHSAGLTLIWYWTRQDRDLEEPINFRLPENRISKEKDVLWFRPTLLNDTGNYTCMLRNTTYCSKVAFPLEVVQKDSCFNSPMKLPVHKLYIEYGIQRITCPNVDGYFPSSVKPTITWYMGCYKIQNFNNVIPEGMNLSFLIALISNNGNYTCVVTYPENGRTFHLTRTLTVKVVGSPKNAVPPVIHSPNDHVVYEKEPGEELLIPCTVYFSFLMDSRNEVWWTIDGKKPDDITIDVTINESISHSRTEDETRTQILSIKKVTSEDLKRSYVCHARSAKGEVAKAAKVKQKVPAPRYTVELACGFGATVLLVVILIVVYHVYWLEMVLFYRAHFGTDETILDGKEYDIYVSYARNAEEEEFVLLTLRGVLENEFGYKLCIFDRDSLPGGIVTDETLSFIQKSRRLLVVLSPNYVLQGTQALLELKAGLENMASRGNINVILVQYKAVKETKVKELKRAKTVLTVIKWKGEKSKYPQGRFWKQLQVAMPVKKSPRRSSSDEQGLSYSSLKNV

[5] = molecular target: T7, rat IL1RAP ECD displayed on HEK-293F cells (pDisplay) (rat, UniProt Q63621 21-367); test: MSD cell binding, HEK-293F Rat clone 1 cells displaying rat IL1RAP ECD
T7 sequence: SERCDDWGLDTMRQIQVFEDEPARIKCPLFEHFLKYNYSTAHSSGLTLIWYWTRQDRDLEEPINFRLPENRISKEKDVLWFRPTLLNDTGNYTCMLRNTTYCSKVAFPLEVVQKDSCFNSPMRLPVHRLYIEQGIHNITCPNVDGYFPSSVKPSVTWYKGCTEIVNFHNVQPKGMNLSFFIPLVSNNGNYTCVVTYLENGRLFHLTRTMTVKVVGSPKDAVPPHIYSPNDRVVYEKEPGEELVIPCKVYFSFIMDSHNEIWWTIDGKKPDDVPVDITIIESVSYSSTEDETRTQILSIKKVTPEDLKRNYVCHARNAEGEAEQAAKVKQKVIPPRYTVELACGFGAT
Experimental: as §1, §2

[6] = molecular target: T8, recombinant human IL1RAP ECD (human, UniProt Q9NPH3 21-367); test: SPR; KD against parent IAPB4
T8 construct: His-tagged; also called hIL1RAP-ECD; rhuIL1RAP
T8 sequence: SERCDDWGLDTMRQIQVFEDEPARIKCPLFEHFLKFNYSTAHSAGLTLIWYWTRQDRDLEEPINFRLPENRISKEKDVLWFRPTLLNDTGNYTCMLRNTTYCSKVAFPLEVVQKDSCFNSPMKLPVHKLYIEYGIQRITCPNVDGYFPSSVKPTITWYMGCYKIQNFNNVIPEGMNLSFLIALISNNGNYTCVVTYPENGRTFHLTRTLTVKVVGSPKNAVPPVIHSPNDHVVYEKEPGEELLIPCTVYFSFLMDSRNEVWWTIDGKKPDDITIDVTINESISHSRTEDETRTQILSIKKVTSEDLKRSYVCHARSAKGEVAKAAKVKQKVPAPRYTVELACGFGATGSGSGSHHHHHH

[7] = molecular target: T8, recombinant human IL1RAP ECD; test: SPR (ProteOn)
[8] = molecular target: T8, recombinant human IL1RAP ECD; test: SPR, summary

binding result [1]: no binding (tested: 100 µg/mL)
IC50 (read off the curve) (human FcγRI): ~90 nM
EC50 (read off the curve) [2]: ~1 µg/mL
EC50 (read off the curve) [3]: ~1 µg/mL
IC50 (read off the curve) (human FcRn): ~200 nM
binding result [5]: no binding (tested: 100 µg/mL)
B1: IC3B18 (bispecific antibody, human IgG4 S228P, lambda, F234A L235A)
heavy 1: EVQLVESGGGLVQPGGSLRLSCAASGFTFNTYAMNWVRQAPGKGLEWVARIRSKYNNYATYYAASVKGRFTISRDDSKNSLYLQMNSLKTEDTAVYYCARHGNFGNSYVSWFAYWGQGTLVTVSSASTKGPSVFPLAPCSRSTSESTAALGCLVKDYFPEPVTVSWNSGALTSGVHTFPAVLQSSGLYSLSSVVTVPSSSLGTKTYTCNVDHKPSNTKVDKRVESKYGPPCPPCPAPEAAGGPSVFLFPPKPKDTLMISRTPEVTCVVVDVSQEDPEVQFNWYVDGVEVHNAKTKPREEQFNSTYRVVSVLTVLHQDWLNGKEYKCKVSNKGLPSSIEKTISKAKGQPREPQVYTLPPSQEEMTKNQVSLTCLVKGFYPSDIAVEWESNGQPENNYKTTPPVLDSDGSFLLYSKLTVDKSRWQEGNVFSCSVMHEALHNHYTQKSLSLSLGK
light 1: QTVVTQEPSLTVSPGGTVTLTCRSSTGAVTTSNYANWVQQKPGQAPRGLIGGTNKRAPGTPARFSGSLLGGKAALTLSGVQPEDEAEYYCALWYSNLWVFGGGTKLTVLGQPKAAPSVTLFPPSSEELQANKATLVCLISDFYPGAVTVAWKADSSPVKAGVETTTPSKQSNNKYAASSYLSLTPEQWKSHRSYSCQVTHEGSTVEKTVAPTECS
heavy 2: not shown
light 2: QSALTQPRSVSGSPGHSVTISCTGTSSDVGDYNYVSWYQQRPGKVPKLLIYDVSKRPSGVPDRFSGSKSGNTASLTISGLQAEDEAIYFCASYAGNYNVVFGGGTKLTVLGQPKAAPSVTLFPPSSEELQANKATLVCLISDFYPGAVTVAWKADSSPVKAGVETTTPSKQSNNKYAASSYLSLTPEQWKSHRSYSCQVTHEGSTVEKTVAPTECS
notes: IgG4-PAA, Fab arm exchange; also called IAPB63 x CD3B219; IL1RAP x CD3
Average EC50, SKNO-1 cytotoxicity in whole blood, 24 hour [4]: 2.92 nM
Average EC50, SKNO-1 cytotoxicity in whole blood, 48 hour [4]: 0.804 nM
EC50, SKNO-1 cytotoxicity in whole blood, donor 00201, 24 hour [4]: 8.62 nM
EC50, SKNO-1 cytotoxicity in whole blood, donor 00201, 48 hour [4]: 0.704 nM
EC50, SKNO-1 cytotoxicity in whole blood, donor 00263, 24 hour [4]: 0.4 nM
EC50, SKNO-1 cytotoxicity in whole blood, donor 00263, 48 hour [4]: 0.58 nM
EC50, SKNO-1 cytotoxicity in whole blood, donor 27050, 48 hour [4]: 2.04 nM
EC50, SKNO-1 cytotoxicity in whole blood, donor 27060, 24 hour [4]: 2.5 nM
EC50, SKNO-1 cytotoxicity in whole blood, donor 27060, 48 hour [4]: 0.516 nM
EC50, SKNO-1 cytotoxicity in whole blood, donor 27067, 24 hour [4]: 1.11 nM
EC50, SKNO-1 cytotoxicity in whole blood, donor 27067, 48 hour [4]: 0.337 nM
EC50, SKNO-1 cytotoxicity in whole blood, donor 32771, 24 hour [4]: 1.94 nM
EC50, SKNO-1 cytotoxicity in whole blood, donor 32782, 48 hour [4]: 0.65 nM

Fold Different from parent [6]: 2.2 fold
Kd [7]: 10.4 nM
koff [7]: 0.00341 s⁻¹
kon [7]: 329000 M⁻¹ s⁻¹
Kd [8]: 10.4 nM
B2: IAPB65 (antibody, human IgG4 S228P, kappa, F234A L235A, V domains shown)
VH: QVQLVQSGAEVKKPGSSVKVSCKASGGTFSSYAISWVRQAPGQGLEWMGGISAIFGTANYAQKFQGRVTITADESTSTAYMELSSLRSEDTAVYYCARHLHNAIHLDYWGQGTLVTVSS
VL: EIVLTQSPATLSLSPGERATLSCRASQSVSNFLAWYQQKPGQAPRLLIYGASNRATGIPARFSGSGSGTDFTLTISSLEPEDFAVYYCQQGKHWPWTFGQGTKVEIKR
notes: IgG4-PAA; whole chains; also called IAPB4-HC-G103A; IgG4-PAA, B4 mutant
